Where two headings read alike, the source gives them in different places.
Columns and labels:
[1] = mouse, in vivo
Method: (§3) A Gd-labeled conjugate of the conjugate containing a peptide linker produced in one of the above Examples was administered from the tail vein of mice (BALB/c or BALB/c nu/nu) so that the protein mass was 0.02 mg (100 μL) per animal. After about 24 hours, the mice were sacrificed and the kidneys were removed, and the amount of Gd in the kidneys was measured using ICP-MS. The present test was carried out in 3 cases in each group, the mean value of the 3 cases was calculated, and the amount of Gd contained per kidney after administration was shown as a percentage (% of dose/tissue) of the total amount of Gd administered.

[2] = design: species or system mice (BALB/c or BALB/c nu/nu); settings: mouse, in vivo
Method: as §3

[3] = design: species or system mice (BALB/c nu/nu); settings: mouse, in vivo
Method: A Gd-labeled conjugate of the conjugate containing a peptide linker produced in one of the above Examples was administered from the tail vein of tumor-bearing mice so that the protein mass was 0.02 mg (100 μL) per animal. As the tumor-bearing mice used in the present Example, mice (BALB/c nu/nu) that were in a tumor-bearing state brought about by transplanting human colorectal cancer cell line LS174T cells (ATCC(registered trademark); CL-188) at 2.0 to 5.0×10^6 cells/mouse subcutaneously on the back before administration of the sample were used. 24 hours after administration of the sample, the mice were sacrificed, the kidneys and the tumor were removed, and the amounts of Gd in the kidneys and in the tumor were measured using ICP-MS. The present test was carried out in 3 cases in each group, and the mean value of the 3 cases was calculated. The amount of Gd contained per kidney after administration was shown as a percentage of the amount of Gd administered (% of dose/tissue), and the amount of Gd contained per g of tumor tissue was shown as a percentage of the total amount of Gd administered (% of dose/g).

[4] = design: species or system mice (BALB/c nu/nu); settings: mouse, in vivo; remark: listed apart in the source
Method: A Gd-labeled conjugate of the conjugate containing a peptide linker produced in one of the above Examples was administered from the tail vein of the tumor-bearing mice so that the protein mass was 0.02 mg (100 μL) per animal. As the tumor-bearing mice used in the present Example, mice (BALB/c nu/nu) that were in a tumor-bearing state brought about by transplanting human breast cancer cell line MDA-MB-468 (ATCC(registered trademark); HTB-132) at 5.0×10^6 cells/mouse subcutaneously on the back before administration of the sample were used. 24 hours after administration of the sample, the mice were sacrificed, the kidneys and the tumor were removed, and the amounts of Gd in the kidneys and in the tumor were measured using ICP-MS. The present test was carried out in 3 cases in each group, and the mean value of the 3 cases was calculated. The amount of Gd contained per kidney after administration was shown as a percentage of the amount of Gd administered (% of dose/tissue), and the amount of Gd contained per g of tumor tissue was shown as a percentage of the total amount of Gd administered (% of dose/g).

[5] = target: human cancer-specific MUC1 peptide; assay: ELISA binding activity of anti-human MUC1 antibody Fab^5 fragment conjugates (Example 6-1); settings: each conjugate run in duplicate; Table 52; read-out: EC50
Chain of human cancer-specific MUC1 peptide (as listed by the source): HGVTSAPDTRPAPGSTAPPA
Method: (§1) Each anti-human MUC1 antibody Fab^5 fragment conjugate prepared by the method of Example 5 was subjected to ELISA to evaluate the binding activity thereof to human cancer-specific MUC1. In the present test, 20×PBS/Tween 20 Buffer (Thermo Fisher Scientific Inc., 28352) diluted 20-fold with distilled water was used as a wash liquid. In addition, for bovine serum albumin (BSA) used in the present test, 30% Bovine Serum Albumin solution (Sigma-Aldrich, Inc., A9576-50ML) was added in an appropriate proportion for use. A human cancer-specific MUC1 peptide (PTL 1) at 0.5 μmol/L was added to a Nunc MaxiSorp White 384 plate (Nunc, 460372) at 30 μL per well, and the plate was incubated overnight at 4° C. for immobilization. The MUC1 peptide was removed by reverse centrifugation, and then blocking was carried out by adding a PBS/Tween 20 buffer containing 5.0% BSA. Thereafter, the blocking solution was removed by reverse centrifugation, a solution of each anti-human MUC1 antibody Fab^5 fragment conjugate (Ex-No. 104, 108, or 112) described above at about 10000 ng/mL was diluted in 14 steps by 3-fold dilution using a PBS/Tween 20 buffer containing 1.0% BSA, and 30 μL was added per well and incubated at room temperature for 60 minutes. The plate was washed 3 times with a PBS/Tween 20 buffer, and Horseradish Peroxidase-labeled goat anti-human IgK antibody (Southern Biotechnology Associates, Inc.) diluted 10000-fold using a PBS/Tween 20 buffer containing 5.0% BSA was added at 30 μL per well and incubated at room temperature for 30 minutes. The plate was washed 3 times with a PBS/Tween 20 buffer, and ECL Prime Western Blotting DETECTION Reagent (GE Healthcare, RPN2232) as a substrate was added at 30 μL per well. The substrate was incubated at room temperature for 15 minutes, and then a signal value thereof was measured using an Envision counter (PerkinElmer, Inc.).
(§2) The test for each antibody was carried out in duplicate, and the EC50 value was calculated using a 4-parameter logistic curve model.

[6] = design: species or system mice (BALB/c or BALB/c nu/nu); settings: mouse, in vivo; remark: listed apart in the source
Method: as §3
Based on the amount of Gd contained in the kidneys of the control conjugate, the proportion of decrease in the amount of Gd contained in the kidneys of each of the conjugates having a peptide linker was determined.

[7] = target: human cancer-specific MUC1 peptide (Homo sapiens, UniProt P15941); assay: ELISA binding activity of anti-human MUC1 antibody Fab^5 fragment conjugates (Example 6-2); settings: each conjugate run in duplicate; Table 54; read-out: EC50
Method: as §1, with “101-113)” for “104, 108, or 112)”
as §2

Molecule | Renal residual amount (normal mice) % of dose/tissue [2] | Renal residual amount (normal mice) Proportion of decrease [2] [%] | Renal residual amount (tumor-bearing mice) % of dose/tissue [4] | Renal residual amount (tumor-bearing mice) Proportion of decrease [4] [%] | EC50 [5] [nM] | Renal residual amount (normal mice) % of dose/tissue [6] | Renal residual amount (normal mice) Proportion of decrease [6] [%] | other results
[Gd/DOTA]p-Fab^2 (conjugate) heavy: EVQLVESGGGLVQPGGSLRLSCAASGFNIRDTYMHWVRQAPGKGLEWVARIDPANGNSRYVPKFQGRFTISADTSRNTAYLQMNSLRAEDTAVYYCAPFGYYVSDYAMAYWGQGTLVTVSSASTKGPSVFPLAPSSKSTSGGTAALGCLVKDYFPEPVTVSWNSGALTSGVHTFPAVLQSSGLYSLSSVVTVPSSSLGTQTYICNVNHKPSNTKVDKKVEPKSCD light: DIQLTQSPSSLSASVGDRVTITCRAGESVDIFGVGFLHWYQQKPGKAPKLLIYRASNLESGIPSRFSGSGSRTDFTLTISSLQPEDFATYYCQQTNEDPYTFGQGTKVEIKRTVAAPSVFIFPPSDEQLKSGTASVVCLLNNFYPREAKVQWKVDNALQSGNSQESVTEQDSKDSTYSLSSTLTLSKADYEKHKVYACEVTHQGLSSPVTKSFNRGEC |  |  |  |  |  |  |  | Renal residual amount (normal mice) % of dose/tissue [1]: 31.33 % of dose/tissue; Renal residual amount (normal mice) Mean [2]: 29.33 % of dose/tissue; Renal residual amount (tumor-bearing mice) Mean [3]: 25.83 % of dose/tissue
Ex-No 10: (Y—S1—X)p-Fab^2: Y Gd/DOTA; S1 bond; X -Met-Ile-Lys*-Z2(#N)— (conjugate) heavy: EVQLVESGGGLVQPGGSLRLSCAASGFNIRDTYMHWVRQAPGKGLEWVARIDPANGNSRYVPKFQGRFTISADTSRNTAYLQMNSLRAEDTAVYYCAPFGYYVSDYAMAYWGQGTLVTVSSASTKGPSVFPLAPSSKSTSGGTAALGCLVKDYFPEPVTVSWNSGALTSGVHTFPAVLQSSGLYSLSSVVTVPSSSLGTQTYICNVNHKPSNTKVDKKVEPKSCD light: DIQLTQSPSSLSASVGDRVTITCRAGESVDIFGVGFLHWYQQKPGKAPKLLIYRASNLESGIPSRFSGSGSRTDFTLTISSLQPEDFATYYCQQTNEDPYTFGQGTKVEIKRTVAAPSVFIFPPSDEQLKSGTASVVCLLNNFYPREAKVQWKVDNALQSGNSQESVTEQDSKDSTYSLSSTLTLSKADYEKHKVYACEVTHQGLSSPVTKSFNRGEC | 20.10 % of dose/tissue | 31.46 |  |  |  |  |  | 
[Gd/DOTA-NH—CH2-(1,4-Ph)-NH—C(═O)-Met-Ile-NH—(CH2)2—Z1(#N)]p-Fab^2 (conjugate) heavy: EVQLVESGGGLVQPGGSLRLSCAASGFNIRDTYMHWVRQAPGKGLEWVARIDPANGNSRYVPKFQGRFTISADTSRNTAYLQMNSLRAEDTAVYYCAPFGYYVSDYAMAYWGQGTLVTVSSASTKGPSVFPLAPSSKSTSGGTAALGCLVKDYFPEPVTVSWNSGALTSGVHTFPAVLQSSGLYSLSSVVTVPSSSLGTQTYICNVNHKPSNTKVDKKVEPKSCD light: DIQLTQSPSSLSASVGDRVTITCRAGESVDIFGVGFLHWYQQKPGKAPKLLIYRASNLESGIPSRFSGSGSRTDFTLTISSLQPEDFATYYCQQTNEDPYTFGQGTKVEIKRTVAAPSVFIFPPSDEQLKSGTASVVCLLNNFYPREAKVQWKVDNALQSGNSQESVTEQDSKDSTYSLSSTLTLSKADYEKHKVYACEVTHQGLSSPVTKSFNRGEC | 2.60 % of dose/tissue | 91.13 |  |  |  |  |  | Renal residual amount (tumor-bearing mice) % of dose/tissue [3]: 5.77 % of dose/tissue; Renal residual amount (tumor-bearing mice) Proportion of decrease [3]: 77.68%
[Gd/DOTA-NH—CH2-(1,4-Ph)-NH—C(═O)-Met-Ile-NH—(CH2)2-(A-4 and/or A-5)]p-Fab^5 (conjugate, non-natural residues) heavy: QVQLVQSGAEVKKPGASVKVSCKASGYTFTNYGLSWVRQAPGQGLEWMGENHPGSGIIYHNEKFRGRVTLTADRSTSTAYMELSSLRSEDTAVYYCARSSGTRGFDYWGQGTLVTVSSASTKGPSVFPLAPSSKSTSGGTAALGCLVKDYFPEPVTVSWNSGALTSGVHTFPAVLQSSGLYSLSSVVTVPSSSLGTQTYICNVNHKPSNTKVDKKVEPKSCD light: DVVMTQTPLSLSVTPGQPASISCRSSQSIVHSNGNTYLEWYLQKPGQSPQLLIYRVSNRFSGVPDRFSGSGSGTDFTLKISRVEAEDVGVYYCFQGSHGPWTFGQGTKLEIKRTVAAPSVFIFPPSDEQLKSGTASVVCLLNNFYPREAKVQWKVDNALQSGNSQESVTEQDSKDSTYSLSSTLTLSKADYEKHKVYACEVTHQGLSSPVTKSFNRGEC |  |  | 3.17 % of dose/tissue | 90.87 | 0.08 | 2.30 % of dose/tissue | 93.03 | 
[Gd/DOTA-NH—CH2-(1,4-Ph)-NH—C(═O)-Met-Ile-NH—(CH2)2-(A-3)]p-Fab^5 (conjugate, non-natural residues) heavy: QVQLVQSGAEVKKPGASVKVSCKASGYTFTNYGLSWVRQAPGQGLEWMGENHPGSGIIYHNEKFRGRVTLTADRSTSTAYMELSSLRSEDTAVYYCARSSGTRGFDYWGQGTLVTVSSASTKGPSVFPLAPSSKSTSGGTAALGCLVKDYFPEPVTVSWNSGALTSGVHTFPAVLQSSGLYSLSSVVTVPSSSLGTQTYICNVNHKPSNTKVDKKVEPKSCD light: DVVMTQTPLSLSVTPGQPASISCRSSQSIVHSNGNTYLEWYLQKPGQSPQLLIYRVSNRFSGVPDRFSGSGSGTDFTLKISRVEAEDVGVYYCFQGSHGPWTFGQGTKLEIKRTVAAPSVFIFPPSDEQLKSGTASVVCLLNNFYPREAKVQWKVDNALQSGNSQESVTEQDSKDSTYSLSSTLTLSKADYEKHKVYACEVTHQGLSSPVTKSFNRGEC |  |  | 4.13 % of dose/tissue | 88.08 | 0.15 | 2.80 % of dose/tissue | 91.52 | 
[Gd/DOTA-[2,5-(1,2,3,4-tetrahydroisoquinoline)]-C(═O)-Met-Gly-Lys*-C(═S)—NH-(1,4-Ph)-NH—C(═S)]p-Fab^5 (conjugate, non-natural residues) heavy: QVQLVQSGAEVKKPGASVKVSCKASGYTFTNYGLSWVRQAPGQGLEWMGENHPGSGIIYHNEKFRGRVTLTADRSTSTAYMELSSLRSEDTAVYYCARSSGTRGFDYWGQGTLVTVSSASTKGPSVFPLAPSSKSTSGGTAALGCLVKDYFPEPVTVSWNSGALTSGVHTFPAVLQSSGLYSLSSVVTVPSSSLGTQTYICNVNHKPSNTKVDKKVEPKSCD light: DVVMTQTPLSLSVTPGQPASISCRSSQSIVHSNGNTYLEWYLQKPGQSPQLLIYRVSNRFSGVPDRFSGSGSGTDFTLKISRVEAEDVGVYYCFQGSHGPWTFGQGTKLEIKRTVAAPSVFIFPPSDEQLKSGTASVVCLLNNFYPREAKVQWKVDNALQSGNSQESVTEQDSKDSTYSLSSTLTLSKADYEKHKVYACEVTHQGLSSPVTKSFNRGEC |  |  |  |  |  |  |  | EC50 [7]: 0.19 nM
